Experimental findings from patent US12545899B2, “Luciferase enzymes for use with thermostable luciferins in bioluminescent assays” (Promega Corporation, priority 2018, dated 2026) are described below.

Changes are numbered by the printed parent chain. In names and notes the source's numbering stands.

B1: C7584F2: SEQ ID NO: 73; H244W+T344A+I396K+S193A+N228D+L305F+S306P+I109V+A344I (protein)
chain: MADKNILYGPEPFYPLEDGTAGEQMFDALSRYAAIPGCIALTNAHTKENVLYEEFLKLSCRLAESFKKYGLKQNDTIAVCSENSLQFFLPVIASLYLGIIVAPVNDKYIERELIHSLGIVKPRIVFCSKNTFQKVLNVKSKLKSIETIIILDLNEDLGGYQCLNNFISQNSDSNLDVKKFKPYSFNRDDQVASIMFSSGTTGLPKGVMLTHKNIVARFSIAKDPTFGNAINPTSAILTVIPFHHGFGMMTTLGYFTCGFRVVLMHTFEEKLFLQSLQDYKVESTLLVPTLMAFLAKSALVEKYDLSHLKEIASGGAPLSKEIGEMVKKRFKLNFVRQGYGLTEATSAVLITPKGDAKPGSTGKIVPLHAVKVVDPTTGKILGPNEPGELYFKGPMIMKGYYNNEEATKAIIDNDGWLRSGDIAYYDNDGHFYIVDRLKSLIKYKGYQVAPAEIEGILLQHPYIVDAGVTGIPDEAAGELPAAGVVVQTGKYLNEQIVQDYVASQVSTAKWLRGGVKFLDEIPKGSTGKIDRKVLRQMLEKHTNGHHHHHHHH
B2: C7579E3: SEQ ID NO: 71; H244W+T344A+I396K+S193A+N228D+L305F+S306P+I109V+Y339M (protein)
chain: B1 chain with S306P, A344T
B3: MK0136: SEQ ID NO: 104; H244W+S193A+N228D+L305F+S306P+I109V+C38R+F55I+Y108F+A316W+Y339M (protein)
chain: MADKNILYGPEPFYPLEDGTAGEQMFDALSRYAAIPGRIALTNAHTKENVLYEEILKLSCRLAESFKKYGLKQNDTIAVCSENSLQFFLPVIASLYLGIIVAPVNDKFVERELIHSLGIVKPRIVFCSKNTFQKVLNVKSKLKSIETIIILDLNEDLGGYQCLNNFISQNSDSNLDVKKFKPYSFNRDDQVAAIMFSSGTTGLPKGVMLTHKNIVARFSIAKDPTFGDAINPTSAILTVIPFHWGFGMMTTLGYFTCGFRVVLMHTFEEKLFLQSLQDYKVESTLLVPTLMAFLAKSALVEKYDFPHLKEIASGGWPLSKEIGEMVKKRFKLNFVRQGMGLSETTSAILITPKGDAKPGSTGKIVPLHAVKVVDPTTGKILGPNEPGELYFKGPMIMKGYYNNEEATKAIIDNDGWLRSGDIAYYDNDGHFYIVDRLKSLIKYKGYQVAPAEIEGILLQHPYIVDAGVTGIPDEAAGELPAAGVVVQTGKYLNEQIVQDYVASQVSTAKWLRGGVKFLDEIPKGSTGKIDRKVLRQMLEKHTNGHHHHHHHH
B4: MK0138: SEQ ID NO: 106; H244W+S193A+N228D+L305F+S306P+I109V+C38R+F55I+Y108F+A316W+Y339M+T3441+I396K (protein)
chain: B3 chain with F108Y, K121Q, S342T, T344I, I396K
B5: ATG-2877: SEQ ID NO: 5; H244W (protein)
chain: B1 chain with H244W, A344T
B6: C2160C1: SEQ ID NO: 51; H244W+T344A+I396K+S193A+N228D+L305F+S306P+I109V+K121Q+F246Y+V261A (protein)
chain: B1 chain with I109V, K121Q, S193A, N228D, H244W, F246Y, V261A, L305F, S306P, I396K
B7: C2158H1: SEQ ID NO: 44; H244W+T344A+I396K+S193A+N228D+L305F+S306P+I109V+I230F (protein)
chain: B1 chain with I109V, S193A, N228D, I230F, H244W, L305F, S306P, I396K
B8: C2262C2: SEQ ID NO: 47; H244W+T344A+I396K+S193A+N228D+L305F+S306P+I109V+Y183C+V261A+T289S (protein)
chain: B1 chain with I109V, Y183C, S193A, N228D, H244W, V261A, T289S, L305F, S306P, I396K
B9: C2149A12: SEQ ID NO: 49; H244W+T344A+I396K+S193A+N228D+L305F+S306P+I109V+F246Y+V261A (protein)
chain: B1 chain with I109V, S193A, N228D, H244W, F246Y, V261A, L305F, S306P, I396K
B10: C2158H3: SEQ ID NO: 46; H244W+T344A+I396K+S193A+N228D+L305F+S306P+I109V+N154S+V261A+I410M (protein)
chain: B1 chain with I109V, N154S, S193A, N228D, H244W, V261A, L305F, S306P, I396K, I410M
B11: C2261E4: SEQ ID NO: 50; H244W+T344A+I396K+S193A+N228D+L305F+S306P+I109V+I230F (protein)
chain: B1 chain with I109V, S193A, N228D, I230F, H244W, L305F, S306P, I396K
B12: C2159F8: SEQ ID NO: 48; H244W+T344A+I396K+S193A+N228D+L305F+S306P+I109V+Y32C (protein)
chain: B1 chain with Y32C, I109V, S193A, N228D, H244W, L305F, S306P, I396K

One data set can be described thus: Brightness of additional luciferase enzyme variants with CS0333. Format: biochemical. Particulars: Table 7A; 1 mM CS0333; Bright-Glo buffer. On the procedure: (§1) Additional luciferase enzyme variants were generated and evaluated for their stability and activity. To evaluate the additional luciferase enzyme variants, 0.005 mg/ml luciferase enzyme variant was mixed with 1 mM ATP+1 mM substrate in either Bright-Glo™ (BG) or Detection Reagent (DR) buffers. […] (Table 7A is colored according to their relative luminescence values within each column across a red to green color spectrum with the lowest values colored red and the highest values colored green.)
For B1, the “Fold-improvement over ATG3707, CS0333 BG” value is 2.35.

For the molecule B2, the “Fold-improvement over ATG3707, CS0333 BG” value was found to be 1.19.

The data set is the same for the next values; noted with them: Table 7A; 1 mM CS0333; Detection Reagent buffer.
Consider B1, for which the “Fold-improvement over ATG3707, CS0333 DR” value is listed as 2.15.

In the case of B2, the “Fold-improvement over ATG3707, CS0333 DR” value amounted to 1.96.

A short description of another data set: Differential scanning fluorimetry (DSF) analysis. Format: physicochemical. Details: key to DSF Tm: melting temperature in °C (heated 30-95 °C at 1 °C/min). As to conditions: Table 7A. As to the method:
To conduct the experiment, Sypro Orange (5000×) was diluted in water to 3× and combined with enzymes stored in 50 mM HEPES pH 7.5, 100 mM NaCl, 2 mM EDTA to a final concentration of 5×. Fluorescence was read at 60 second intervals as the reactions were heated at 1° C. per minute from 30-95° C. The change in fluorescence at each minute was calculated and plotted for each temperature in the range.
The luciferase enzyme variants generated were also evaluated using DSF analysis as shown in the representative results provided in Tables 7A and 7B above. To conduct the experiments, Sypro Orange (5000×) was diluted in water to 3× and combined with enzymes stored in 20 mM HEPES pH 7.5, 200 mM NaCl, 1 mM EDTA to a final concentration of 5×. Fluorescence was read at 60 second intervals as the reactions were heated at 1° C. per minute from 30-95° C. The change in fluorescence at each minute was calculated and plotted for each temperature in the range.
(In general: In DSF a fluorescence change marks the thermal transition of the protein.)
For B1, the “DSF Tm” value came out at 65.

For the molecule B2, the “DSF Tm” value stood at 55.

Still in this data set, the particulars now being: Table 9B.
For B3, the “DSF Tm (° C.)” value is 71 °C.

B4: the “DSF Tm (° C.)” value worked out at 58 °C.

Staying with this data set, now noted: compared with Ppe variant (SEQ ID NO: 1); FIG. 29.
In the case of B5, the “transition melting temperature by DSF” value is “does not alter the transition melting temperature”.

The next data set can be described thus: Luminescence of ATG-3707 variants (second round epPCR) with CS0333. Format: biochemical. As to conditions: BrightGlo buffer, 25° C., 3 min. As to the method: Reagent compositions included CS0333 diluted from 20 mM to 2 mM in reaction buffer with 2 mM ATP. […] Reactions were incubated at 25° C. for 3 min, and luminescence was read and then normalized to ATG-3707 activity tested in parallel.
As for B6, the “Luminescence (RLU) BrightGlo” value is recorded as 4459170 RLU.

For the molecule B7, the “Luminescence (RLU) BrightGlo” value came out at 3760160 RLU.

Turning to B8, the “Luminescence (RLU) BrightGlo” value was found to be 3874490 RLU.

For B9, the “Luminescence (RLU) BrightGlo” value worked out at 4701610 RLU.

As for B10, the “Luminescence (RLU) BrightGlo” value amounted to 3892740 RLU.

Take B11: the “Luminescence (RLU) BrightGlo” value amounted to 3249560 RLU.

Take B12: the “Luminescence (RLU) BrightGlo” value was found to be 4599710 RLU.

Staying with this data set, now noted: BrightGlo buffer, normalized to ATG-3707.
On to B6, for which the “Normalized Luminescence BrightGlo” value is 1.15.

Consider B7, for which the “Normalized Luminescence BrightGlo” value is 0.97.

As to B8, the “Normalized Luminescence BrightGlo” value amounted to 1.00.

B9: the “Normalized Luminescence BrightGlo” value is given as 1.21.

In the case of B10, the “Normalized Luminescence BrightGlo” value came to 1.00.

Turning to B11, the “Normalized Luminescence BrightGlo” value worked out at 0.84.

B12: the “Normalized Luminescence BrightGlo” value is 1.18.

Staying with this data set, now noted: CellTiterGlo buffer, 25° C., 3 min.
Take B6: the “Luminescence (RLU) CellTiterGlo” value was 450262 RLU.

In the case of B7, the “Luminescence (RLU) CellTiterGlo” value is 778990 RLU.

Consider B8, for which the “Luminescence (RLU) CellTiterGlo” value is reported as 738328 RLU.

Regarding B9, the “Luminescence (RLU) CellTiterGlo” value came out at 479613 RLU.

For the molecule B10, the “Luminescence (RLU) CellTiterGlo” value amounted to 648483 RLU.

In the case of B11, the “Luminescence (RLU) CellTiterGlo” value turned out to be 710098 RLU.

As for B12, the “Luminescence (RLU) CellTiterGlo” value is on record as 650068 RLU.

The data set is the same for the next values; noted with them: CellTiterGlo buffer, normalized to ATG-3707.
On to B6, for which the “Normalized Luminescence CellTiterGlo” value was 0.70.

For the molecule B7, the “Normalized Luminescence CellTiterGlo” value was 1.21.

With B8, the “Normalized Luminescence CellTiterGlo” value is listed as 1.15.

Turning to B9, the “Normalized Luminescence CellTiterGlo” value stood at 0.74.

In the case of B10, the “Normalized Luminescence CellTiterGlo” value was 1.01.

In the case of B11, the “Normalized Luminescence CellTiterGlo” value came to 1.10.

Take B12: the “Normalized Luminescence CellTiterGlo” value came out at 1.01.

The data set is the same for the next values; noted with them: Detection Reagent buffer, 25° C., 3 min.
For B6, the “Luminescence (RLU) Detection Reagent” value is given as 5002710 RLU.

Regarding B7, the “Luminescence (RLU) Detection Reagent” value worked out at 6098750 RLU.

For B8, the “Luminescence (RLU) Detection Reagent” value was found to be 5661740 RLU.

With B9, the “Luminescence (RLU) Detection Reagent” value worked out at 5480500 RLU.

In the case of B10, the “Luminescence (RLU) Detection Reagent” value turned out to be 5916440 RLU.

Turning to B11, the “Luminescence (RLU) Detection Reagent” value is 5375380 RLU.

Turning to B12, the “Luminescence (RLU) Detection Reagent” value came to 5611680 RLU.

The same data set, now with this note: Detection Reagent buffer, normalized to ATG-3707.
In the case of B6, the “Normalized Luminescence Detection Reagent” value is on record as 0.97.

As for B7, the “Normalized Luminescence Detection Reagent” value is 1.18.

On to B8, for which the “Normalized Luminescence Detection Reagent” value is on record as 1.10.

Take B9: the “Normalized Luminescence Detection Reagent” value amounted to 1.06.

Regarding B10, the “Normalized Luminescence Detection Reagent” value is on record as 1.15.

On to B11, for which the “Normalized Luminescence Detection Reagent” value amounted to 1.04.

Consider B12, for which the “Normalized Luminescence Detection Reagent” value is recorded as 1.09.

A further data set is described as follows: Brightness of additional luciferase enzyme variants with CS0280. Format: biochemical. As to conditions: Table 7A; 1 mM CS0280; Bright-Glo buffer. As to the method:
as §1
For the molecule B1, the “Fold-improvement over ATG3707, CS0280 BG” value came out at 2.78.

Turning to B2, the “Fold-improvement over ATG3707, CS0280 BG” value is 3.26.

The data set is the same for the next values; noted with them: Table 7A; 1 mM CS0280; Detection Reagent buffer.
For B1, the “Fold-improvement over ATG3707, CS0280 DR” value is reported as 2.68.

B2: the “Fold-improvement over ATG3707, CS0280 DR” value was found to be 3.63.
